Consider one molecule from patent US20260055186A1 (REPERTOIRE IMMUNE MEDICINES, published 2026).

This experiment has as its target T1, mouse CD8 on mouse cells (mouse, UniProt P01731 28-247).
T1 construct: whole, on cells; also called mCD8
In words: flow cytometry of peripheral blood, B16-F10-bearing mice, 4 days after the first dose (in vivo). On the procedure: Mice were injected weekly for a total of 4 doses, at a dose equivalent to 10 μg of recombinant IL12. Tumor volume was measured twice per week, and mice were euthanized if tumor volume exceeded 2000 mm³. […] Specifically, in the MC38 model, treatment with the CD8IgG-IL12 (LC) Clone 2 construct controlled tumor growth up to day 21 and yielded 3/8 complete responders, whereas treatment with the CD8IgG-IL12 (1× HC) construct controlled tumor growth for the entire duration of the study and yielded 7/8 complete responders (FIGS. 6A-6C). In the B16-F10 model, which is typically less responsive to immunotherapy, both constructs limited tumor growth for up to 14 days after the initial dose (FIGS. 7A-7C).
In the same study, the two anti-CD8:IL-12 fusion constructs were also evaluated for their ability to be retained in tissues. Peripheral blood cells were collected from MC38 and B16-F10 tumor-bearing mice 4 days after administration of the first dose of the IL-12 construct. Samples were analyzed by flow cytometry. In the case of the MC38 tumor-bearing mice, IL-12 was detected on the surface of CD8+ T cells 4 days post-treatment with either of the two anti-CD8:IL-12 fusion protein constructs, but not on the surface of CD4+ T cells or NK cells (FIG. 8A). […]
Background: Flow cytometry measures light scatter and fluorescence of single cells or particles in a stream.

T1 sequence (P01731 28-247): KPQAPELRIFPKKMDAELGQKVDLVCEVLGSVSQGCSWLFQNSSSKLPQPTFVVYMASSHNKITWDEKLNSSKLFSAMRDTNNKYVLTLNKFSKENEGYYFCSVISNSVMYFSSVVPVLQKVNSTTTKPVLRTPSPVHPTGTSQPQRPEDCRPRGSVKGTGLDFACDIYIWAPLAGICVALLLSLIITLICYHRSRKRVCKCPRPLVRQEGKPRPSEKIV

B1: rIL-12 (ligand)
alpha: RVIPVSGPARCLSQSRNLLKTTDDMVKTAREKLKHYSCTAEDIDHEDITRDQTSTLKTCLPLELHKNESCLATRETSSTTRGSCLPPQKTSLMMTLCLGSIYEDLKMYQTEFQAINAALQNHNHQQIILDKGMLVAIDELMQSLNHNGETLRQKPPVGEADPYRVKMKLCILLHAFSTRVVTINRVMGYLSSA
beta: MWELEKDVYVVEVDWTPDAPGETVNLTCDTPEEDDITWTSDQRHGVIGSGKTLTITVKEFLDAGQYTCHKGGETLSHSHLLLHKKENGIWSTEILKNFKNKTFLKCEAPNYSGRFTCSWLVQRNMDLKFNIKSSSSSPDSRAVTCGMASLSAEKVTLDQRDYEKYSVSCQEDVTCPTAEETLPIELALEARQQNKYENYSTSFFIRDIIKPDPPKNLQMKPLKNSQVEVSWEYPDSWSTPHSYFSLKFFVRIQRKKEKMKETEEGCNQKGAFLVEKTSTEVQCKGGNVCVQAQDRYYNSSCSKWACVPCRVRS
notes: untargeted control; also called rmIL-12; non-targeted recombinant mouse IL-12; copies: 1 + 1
As for B1, the binding result is recorded as “no binding (tested: dose equivalent to 10 µg IL-12, i.v.)”.
